{
  "source": "patent US20260217861",
  "system": "mouse GPV with point mutation R476A in the thrombin cleavage site (Gp5^dThr platelets)",
  "sequence (chain, as listed by the source R476A)": "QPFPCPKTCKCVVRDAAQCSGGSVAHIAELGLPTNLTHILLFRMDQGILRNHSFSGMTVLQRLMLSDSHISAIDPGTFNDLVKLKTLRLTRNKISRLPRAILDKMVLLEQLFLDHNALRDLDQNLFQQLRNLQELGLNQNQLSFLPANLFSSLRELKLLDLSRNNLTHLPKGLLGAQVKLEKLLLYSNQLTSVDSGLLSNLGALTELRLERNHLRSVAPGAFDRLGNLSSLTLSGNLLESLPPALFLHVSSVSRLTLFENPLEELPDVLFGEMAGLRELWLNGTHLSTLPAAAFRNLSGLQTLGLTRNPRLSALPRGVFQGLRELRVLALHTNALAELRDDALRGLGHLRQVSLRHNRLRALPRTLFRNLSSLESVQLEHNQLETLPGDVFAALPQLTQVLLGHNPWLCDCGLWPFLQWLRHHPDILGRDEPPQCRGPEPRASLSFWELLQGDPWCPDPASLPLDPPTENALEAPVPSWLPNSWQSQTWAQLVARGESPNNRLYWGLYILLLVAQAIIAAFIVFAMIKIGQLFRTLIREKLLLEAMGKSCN",
  "data": [
    {"substance": "human thrombin (Roche, Sigma-Aldrich #10602400001)", "values": [
      {"measurement": "cleavage of GPV by thrombin (sGPV ELISA, flow cytometry)", "value": "GPV was completely resistant to cleavage by thrombin"}
    ]}
  ]
}
